Experimental data from patent EP4536686B1 (GENETHON, dated 2025).

Biological target: T1, integrin heterodimer αVβ6 (ITGAV-B6) (human, UniProt P06756 31-1048; P18564 22-788)
T1 construct: whole, on cells; Species is read from the 'h' prefix of hITGAV and hITGB6; also called ITGAV-B6 heterodimers; hITGAV and hITGB6
Experiment: concluding sentence, resting on the infection and luciferase assay in 293_ITGAV-B6 cells; no direct binding assay

T1 sequence (P06756 31-1048, chain 1 of 2): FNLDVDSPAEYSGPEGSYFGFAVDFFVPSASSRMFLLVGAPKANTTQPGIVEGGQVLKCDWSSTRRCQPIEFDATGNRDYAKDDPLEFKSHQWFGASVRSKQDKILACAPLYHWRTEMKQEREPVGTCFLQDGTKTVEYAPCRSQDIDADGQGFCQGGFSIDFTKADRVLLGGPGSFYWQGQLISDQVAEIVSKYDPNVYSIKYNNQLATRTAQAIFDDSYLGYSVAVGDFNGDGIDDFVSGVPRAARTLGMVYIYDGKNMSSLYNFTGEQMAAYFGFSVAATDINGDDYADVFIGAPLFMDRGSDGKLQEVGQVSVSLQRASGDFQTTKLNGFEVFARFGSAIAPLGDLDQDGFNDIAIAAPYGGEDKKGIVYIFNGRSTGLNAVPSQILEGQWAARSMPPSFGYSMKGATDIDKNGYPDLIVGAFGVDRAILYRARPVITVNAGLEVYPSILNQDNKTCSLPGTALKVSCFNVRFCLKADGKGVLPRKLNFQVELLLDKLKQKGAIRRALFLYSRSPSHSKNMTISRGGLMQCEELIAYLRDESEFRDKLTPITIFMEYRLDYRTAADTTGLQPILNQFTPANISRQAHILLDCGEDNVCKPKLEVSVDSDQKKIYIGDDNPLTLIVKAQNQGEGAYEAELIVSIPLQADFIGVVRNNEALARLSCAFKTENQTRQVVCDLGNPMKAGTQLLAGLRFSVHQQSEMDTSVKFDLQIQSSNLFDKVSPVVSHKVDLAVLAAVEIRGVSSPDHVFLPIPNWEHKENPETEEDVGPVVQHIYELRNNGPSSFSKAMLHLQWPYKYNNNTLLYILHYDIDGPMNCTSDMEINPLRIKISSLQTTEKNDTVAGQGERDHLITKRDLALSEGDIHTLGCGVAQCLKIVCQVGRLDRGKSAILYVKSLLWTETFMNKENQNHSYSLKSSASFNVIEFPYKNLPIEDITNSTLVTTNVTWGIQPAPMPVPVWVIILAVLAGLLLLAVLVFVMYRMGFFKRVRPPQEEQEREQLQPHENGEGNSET
T1 sequence (P18564 22-788, chain 2 of 2): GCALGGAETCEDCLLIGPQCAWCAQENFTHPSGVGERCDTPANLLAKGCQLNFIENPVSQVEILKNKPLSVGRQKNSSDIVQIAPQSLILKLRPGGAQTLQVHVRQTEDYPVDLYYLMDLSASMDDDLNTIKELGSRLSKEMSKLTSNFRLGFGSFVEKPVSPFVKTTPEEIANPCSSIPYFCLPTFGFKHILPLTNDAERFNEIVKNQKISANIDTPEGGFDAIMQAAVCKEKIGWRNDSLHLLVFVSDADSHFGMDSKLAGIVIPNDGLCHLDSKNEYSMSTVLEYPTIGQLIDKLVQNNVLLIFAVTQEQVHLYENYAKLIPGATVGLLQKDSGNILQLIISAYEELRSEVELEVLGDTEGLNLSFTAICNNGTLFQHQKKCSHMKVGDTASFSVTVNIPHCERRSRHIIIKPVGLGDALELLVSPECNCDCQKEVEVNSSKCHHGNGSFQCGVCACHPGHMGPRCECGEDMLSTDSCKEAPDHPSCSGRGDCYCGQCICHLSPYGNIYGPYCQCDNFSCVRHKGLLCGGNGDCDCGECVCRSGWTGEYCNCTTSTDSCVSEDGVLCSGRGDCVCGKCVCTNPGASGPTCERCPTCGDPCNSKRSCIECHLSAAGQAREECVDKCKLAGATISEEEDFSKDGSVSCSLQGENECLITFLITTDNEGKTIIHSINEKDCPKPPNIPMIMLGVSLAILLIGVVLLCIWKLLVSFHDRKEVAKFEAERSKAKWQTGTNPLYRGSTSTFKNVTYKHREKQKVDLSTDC

Binder	binding result
AAV_Cap9rh74_VR4-4um9.Nat (other, Tested as a whole recombinant AAV vector particle packaging CMV-GFP/Luc; also called Cap9rh74_VR4-4um9(LICA.01)) MAADGYLPDWLEDNLSEGIREWWALKPGAPQPKANQQHQDNARGLVLPGYKYLGPGNGLDKGEPVNAADAAALEHDKAYDQQLKAGDNPYLKYNHADAEFQERLKEDTSFGGNLGRAVFQAKKRLLEPLGLVEEAAKTAPGKKRPVEQSPQEPDSSAGIGKSGAQPAKKRLNFGQTGDTESVPDPQPIGEPPAAPSGVGSLTMASGGGAPVADNNEGADGVGSSSGNWHCDSQWLGDRVITTSTRTWALPTYNNHLYKQISNSTSGGSSNDNAYFGYSTPWGYFDFNRFHCHFSPRDWQRLINNNWGFRPKRLNFKLFNIQVKEVTDNNGVKTIANNLTSTVQVFTDSDYQLPYVLGSAHEGCLPPFPADVFMIPQYGYLTLNDGSQAVGRSSFYCLEYFPSQMLRTGNNFQFSYEFENVPFHSSYAHSQSLDRLMNPLIDQYLYYLSRTQSTDGRGDLGRLGPQQLLFSQAGPNNMSAQAKNWLPGPCYRQQRVSTTLSQNNNSNFAWTGATKYHLNGRDSLVNPGVAMATHKDDEERFFPSSGVLMFGKQGAGKDNVDYSSVMLTSEEEIKTTNPVATEQYGVVADNLQQQNAAPIVGAVNSQGALPGMVWQNRDVYLQGPIWAKIPHTDGNFHPSPLMGGFGMKHPPPQILIKNTPVPADPPTAFNKDKLNSFITQYSTGQVSVEIEWELQKENSKRWNPEIQYTSNYYKSNNVEFAVNTEGVYSEPRPIGTRYLTRNL	binds
AAV_Cap9rh74_VR4-5ffo.Nat (other, Tested as a whole recombinant AAV vector particle packaging CMV-GFP/Luc) MAADGYLPDWLEDNLSEGIREWWALKPGAPQPKANQQHQDNARGLVLPGYKYLGPGNGLDKGEPVNAADAAALEHDKAYDQQLKAGDNPYLKYNHADAEFQERLKEDTSFGGNLGRAVFQAKKRLLEPLGLVEEAAKTAPGKKRPVEQSPQEPDSSAGIGKSGAQPAKKRLNFGQTGDTESVPDPQPIGEPPAAPSGVGSLTMASGGGAPVADNNEGADGVGSSSGNWHCDSQWLGDRVITTSTRTWALPTYNNHLYKQISNSTSGGSSNDNAYFGYSTPWGYFDFNRFHCHFSPRDWQRLINNNWGFRPKRLNFKLFNIQVKEVTDNNGVKTIANNLTSTVQVFTDSDYQLPYVLGSAHEGCLPPFPADVFMIPQYGYLTLNDGSQAVGRSSFYCLEYFPSQMLRTGNNFQFSYEFENVPFHSSYAHSQSLDRLMNPLIDQYLYYLSRTQSEPRRGDLATIGSQQLLFSQAGPNNMSAQAKNWLPGPCYRQQRVSTTLSQNNNSNFAWTGATKYHLNGRDSLVNPGVAMATHKDDEERFFPSSGVLMFGKQGAGKDNVDYSSVMLTSEEEIKTTNPVATEQYGVVADNLQQQNAAPIVGAVNSQGALPGMVWQNRDVYLQGPIWAKIPHTDGNFHPSPLMGGFGMKHPPPQILIKNTPVPADPPTAFNKDKLNSFITQYSTGQVSVEIEWELQKENSKRWNPEIQYTSNYYKSNNVEFAVNTEGVYSEPRPIGTRYLTRNL	binds
